Measurements as given in PMC4521160, “Glass is a Viable Substrate for Precision Force Microscopy of Membrane Proteins” (Scientific Reports, 2015).

Experiments:
ATPase SecA = molecular target: T1, ATPase SecA (E. coli, UniProt P10408 1-901); experiment: atomic force microscopy (AFM) imaging; proteoliposomes of coassembled SecYEG and SecA deposited on KOH-treated glass (height histograms also on mica); tapping mode, ~30 °C, 10 mM HEPES pH 8.0, 200 mM KAc, 5 mM MgAc2; single translocons tracked for >1800 s; conditions: both partners purified
T1 construct: SecA, ATPase of the general secretory system of E. coli; SecA was added for coassembly 'at 5 μM dimer'; Zinc is kept in SecA by the purification; also called peripheral membrane protein SecA; source: purified from the supernatant of lysed cells (QAE column)
T1 sequence (P10408 whole entry): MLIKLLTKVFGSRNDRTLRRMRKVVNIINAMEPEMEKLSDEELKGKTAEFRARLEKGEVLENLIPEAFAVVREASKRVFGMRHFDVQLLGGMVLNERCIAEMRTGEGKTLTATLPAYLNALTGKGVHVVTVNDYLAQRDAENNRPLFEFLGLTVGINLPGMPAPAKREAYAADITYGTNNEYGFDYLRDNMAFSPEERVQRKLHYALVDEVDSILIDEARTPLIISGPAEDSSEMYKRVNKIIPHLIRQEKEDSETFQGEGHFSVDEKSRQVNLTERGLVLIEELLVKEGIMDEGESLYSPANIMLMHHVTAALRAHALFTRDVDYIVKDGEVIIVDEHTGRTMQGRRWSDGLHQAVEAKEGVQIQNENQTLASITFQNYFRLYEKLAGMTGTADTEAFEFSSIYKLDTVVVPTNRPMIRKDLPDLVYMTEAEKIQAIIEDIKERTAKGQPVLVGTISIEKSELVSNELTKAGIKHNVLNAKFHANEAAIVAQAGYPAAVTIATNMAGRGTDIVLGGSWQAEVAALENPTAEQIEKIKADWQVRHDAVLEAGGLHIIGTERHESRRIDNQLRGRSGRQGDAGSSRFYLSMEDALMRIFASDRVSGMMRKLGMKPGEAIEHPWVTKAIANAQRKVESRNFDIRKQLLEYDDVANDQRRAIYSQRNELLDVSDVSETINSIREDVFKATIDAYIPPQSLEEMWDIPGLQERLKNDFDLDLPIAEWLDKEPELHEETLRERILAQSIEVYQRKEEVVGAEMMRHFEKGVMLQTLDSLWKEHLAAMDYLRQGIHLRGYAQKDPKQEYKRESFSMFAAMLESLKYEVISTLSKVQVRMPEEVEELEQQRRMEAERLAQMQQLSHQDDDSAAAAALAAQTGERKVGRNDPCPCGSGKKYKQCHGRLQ

[1] = molecular target: T2, bacteriorhodopsin from Halobacterium salinarum (Halobacterium salinarum), P02945; experiment: atomic force microscopy (AFM) imaging; purple membrane on KOH-treated glass (20 mM Tris pH ~8.5, 200 mM KCl, 20 mM MgCl2) and on mica (10 mM Tris pH ~7.6, 150 mM KCl); tapping mode, ~30 °C; correlation averaging; conditions: remark: other sources report otherwise
T2 chain: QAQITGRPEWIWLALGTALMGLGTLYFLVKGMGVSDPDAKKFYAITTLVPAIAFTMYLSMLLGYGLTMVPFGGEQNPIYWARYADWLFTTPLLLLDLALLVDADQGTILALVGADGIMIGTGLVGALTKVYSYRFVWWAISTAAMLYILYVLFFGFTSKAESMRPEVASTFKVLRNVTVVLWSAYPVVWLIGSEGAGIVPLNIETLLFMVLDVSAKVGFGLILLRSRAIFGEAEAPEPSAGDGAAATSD

Binder | binding result (ATPase SecA) | stoichiometry N [1]
SecYEG translocon from Escherichia coli (complex, E. coli, SecY of the E. coli translocon SecYEG, with C329S and C385S; SecE of the E. coli translocon SecYEG; SecG of the E. coli translocon SecYEG; In the assay the complex stood in a lipid bilayer supported by glass (or mica); also called bacterial translocon; copies: + +) chain 1: MAKQPGLDFQSAKGGLGELKRRLLFVIGALIVFRIGSFIPIPGIDAAVLAKLLEQQRGTIIEMFNMFSGGALSRASIFALGIMPYISASIIIQLLTVVHPTLAEIKKEGESGRRKISQYTRYGTLVLAIFQSIGIATGLPNMPGMQGLVINPGFAFYFTAVVSLVTGTMFLMWLGEQITERGIGNGISIIIFAGIVAGLPPAIAHTIEQARQGDLHFLVLLLVAVLVFAVTFFVVFVERGQRRIVVNYAKRQQGRRVYAAQSTHLPLKVNMAGVIPAIFASSIILFPATIASWFGGGTGWNWLTTISLYLQPGQPLYVLLYASAIIFFSFFYTALVFNPRETADNLKKSGAFVPGIRPGEQTAKYIDKVMTRLTLVGALYITFISLIPEFMRDAMKVPFYFGGTSLLIVVVVIMDFMAQVQTLMMSSQYESALKKANLKGYGR chain 2: MSANTEAQGSGRGLEAMKWVVVVALLLVAIVGNYLYRDIMLPLRALAVVILIAAAGGVALLTTKGKATVAFAREARTEVRKVIWPTRQETLHTTLIVAAVTAVMSLILWGLDGILVRLVSFITGLRF chain 3: MYEALLVVFLIVAIGLVGLIMLQQGKGADMGASFGAGASATLFGSSGSGNFMTRMTALLATLFFIISLVLGNINSNKTNKGSEWENLSAPAKTEQTQPAAPAKPTSDIPN | binds | –
bacteriorhodopsin from Halobacterium salinarum, P02945 14-262 (natural protein, here or on the partner: retinal chromophore; retinal chromophore) QAQITGRPEWIWLALGTALMGLGTLYFLVKGMGVSDPDAKKFYAITTLVPAIAFTMYLSMLLGYGLTMVPFGGEQNPIYWARYADWLFTTPLLLLDLALLVDADQGTILALVGADGIMIGTGLVGALTKVYSYRFVWWAISTAAMLYILYVLFFGFTSKAESMRPEVASTFKVLRNVTVVLWSAYPVVWLIGSEGAGIVPLNIETLLFMVLDVSAKVGFGLILLRSRAIFGEAEAPEPSAGDGAAATSD | – | 3
